From the supplement of paper PMC10065799, “High-throughput profiling of sequence recognition by tyrosine kinases and SH2 domains using bacterial peptide display” (eLife, 2023)

Legend:
Fyn = Fyn (UniProt P06241); assay: phosphorylation enrichment, bacterial display (enrichment ratio); higher = better substrate or ligand; peptides without Tyr show the background
FGFR3 = FGFR3 (UniProt P22607); assay: as above
EPHB2 = EPHB2 (UniProt P29323); assay: as above
AncSZ = assay: as above
c-Abl (mouse) = assay: as above
c-Src = assay: as above
Hck = Hck (UniProt P08631); assay: as above
Hck, sequence (P08631 whole entry, looked up): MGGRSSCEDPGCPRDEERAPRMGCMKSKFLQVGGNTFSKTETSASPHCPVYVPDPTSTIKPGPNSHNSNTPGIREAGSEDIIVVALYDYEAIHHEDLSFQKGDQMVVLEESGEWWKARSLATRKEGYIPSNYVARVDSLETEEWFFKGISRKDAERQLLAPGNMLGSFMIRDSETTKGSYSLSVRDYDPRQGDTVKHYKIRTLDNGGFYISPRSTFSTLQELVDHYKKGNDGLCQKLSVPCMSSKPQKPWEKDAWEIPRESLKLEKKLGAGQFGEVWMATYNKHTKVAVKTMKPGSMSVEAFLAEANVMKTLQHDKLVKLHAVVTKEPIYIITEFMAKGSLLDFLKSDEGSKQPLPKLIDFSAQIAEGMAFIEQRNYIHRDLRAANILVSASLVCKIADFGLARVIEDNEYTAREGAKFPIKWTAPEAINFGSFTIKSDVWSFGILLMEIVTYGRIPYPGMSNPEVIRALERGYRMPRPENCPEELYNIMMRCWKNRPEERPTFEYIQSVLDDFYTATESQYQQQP

EPHB1 = EPHB1 (UniProt P54762); assay: as above
EPHB1, sequence (P54762 whole entry, looked up): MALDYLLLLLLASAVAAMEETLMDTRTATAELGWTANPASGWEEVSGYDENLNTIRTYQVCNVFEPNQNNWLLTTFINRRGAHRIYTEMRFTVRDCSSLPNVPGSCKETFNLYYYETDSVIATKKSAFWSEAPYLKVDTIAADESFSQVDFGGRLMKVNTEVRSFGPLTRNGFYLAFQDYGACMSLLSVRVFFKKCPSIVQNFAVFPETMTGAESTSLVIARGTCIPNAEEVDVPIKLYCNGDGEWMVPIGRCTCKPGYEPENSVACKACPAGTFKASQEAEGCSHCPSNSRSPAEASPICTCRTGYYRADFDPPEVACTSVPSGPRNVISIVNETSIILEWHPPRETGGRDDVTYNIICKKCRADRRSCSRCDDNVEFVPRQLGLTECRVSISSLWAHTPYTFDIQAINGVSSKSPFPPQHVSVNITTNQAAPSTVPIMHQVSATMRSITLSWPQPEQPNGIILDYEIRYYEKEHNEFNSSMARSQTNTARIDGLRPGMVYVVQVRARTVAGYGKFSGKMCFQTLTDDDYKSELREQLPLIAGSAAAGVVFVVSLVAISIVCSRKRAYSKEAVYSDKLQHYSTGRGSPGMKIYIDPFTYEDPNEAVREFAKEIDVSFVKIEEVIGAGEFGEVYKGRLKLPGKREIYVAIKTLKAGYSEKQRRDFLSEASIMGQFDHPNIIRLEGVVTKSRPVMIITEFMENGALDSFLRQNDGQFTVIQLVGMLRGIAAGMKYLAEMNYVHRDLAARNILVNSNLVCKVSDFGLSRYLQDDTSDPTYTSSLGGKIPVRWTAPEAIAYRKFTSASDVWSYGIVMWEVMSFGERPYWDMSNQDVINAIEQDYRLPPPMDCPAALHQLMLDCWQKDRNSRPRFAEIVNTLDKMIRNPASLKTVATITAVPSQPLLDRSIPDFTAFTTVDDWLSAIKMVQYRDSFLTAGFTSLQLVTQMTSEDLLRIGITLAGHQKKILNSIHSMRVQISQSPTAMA

MERTK = MERTK (UniProt Q12866); assay: as above
FGFR1 = FGFR1 (UniProt P11362); assay: as above
FGFR1, sequence (P11362 whole entry, looked up): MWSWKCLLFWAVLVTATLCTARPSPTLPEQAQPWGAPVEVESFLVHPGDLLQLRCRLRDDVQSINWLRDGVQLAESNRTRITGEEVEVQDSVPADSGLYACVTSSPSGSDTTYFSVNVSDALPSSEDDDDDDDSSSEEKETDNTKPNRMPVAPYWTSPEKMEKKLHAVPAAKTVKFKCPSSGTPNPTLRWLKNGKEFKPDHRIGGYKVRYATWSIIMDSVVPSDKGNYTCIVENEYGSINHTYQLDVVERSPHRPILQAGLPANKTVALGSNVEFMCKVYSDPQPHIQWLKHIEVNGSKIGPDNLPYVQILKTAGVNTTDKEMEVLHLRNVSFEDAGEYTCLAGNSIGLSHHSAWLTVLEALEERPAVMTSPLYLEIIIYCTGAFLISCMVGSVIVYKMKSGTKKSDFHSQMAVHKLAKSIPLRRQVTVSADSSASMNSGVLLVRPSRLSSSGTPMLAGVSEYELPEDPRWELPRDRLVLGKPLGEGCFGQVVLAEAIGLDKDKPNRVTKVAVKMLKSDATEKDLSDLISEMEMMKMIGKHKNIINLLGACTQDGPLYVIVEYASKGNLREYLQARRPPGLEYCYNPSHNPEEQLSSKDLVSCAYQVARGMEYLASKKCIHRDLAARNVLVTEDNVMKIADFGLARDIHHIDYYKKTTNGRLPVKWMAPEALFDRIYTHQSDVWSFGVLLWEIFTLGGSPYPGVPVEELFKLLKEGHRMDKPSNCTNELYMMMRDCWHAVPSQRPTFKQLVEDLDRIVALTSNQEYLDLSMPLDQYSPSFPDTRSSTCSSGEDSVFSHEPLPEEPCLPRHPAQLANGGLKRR

Fes = Fes (UniProt P07332); assay: as above
Fes, sequence (P07332 whole entry, looked up): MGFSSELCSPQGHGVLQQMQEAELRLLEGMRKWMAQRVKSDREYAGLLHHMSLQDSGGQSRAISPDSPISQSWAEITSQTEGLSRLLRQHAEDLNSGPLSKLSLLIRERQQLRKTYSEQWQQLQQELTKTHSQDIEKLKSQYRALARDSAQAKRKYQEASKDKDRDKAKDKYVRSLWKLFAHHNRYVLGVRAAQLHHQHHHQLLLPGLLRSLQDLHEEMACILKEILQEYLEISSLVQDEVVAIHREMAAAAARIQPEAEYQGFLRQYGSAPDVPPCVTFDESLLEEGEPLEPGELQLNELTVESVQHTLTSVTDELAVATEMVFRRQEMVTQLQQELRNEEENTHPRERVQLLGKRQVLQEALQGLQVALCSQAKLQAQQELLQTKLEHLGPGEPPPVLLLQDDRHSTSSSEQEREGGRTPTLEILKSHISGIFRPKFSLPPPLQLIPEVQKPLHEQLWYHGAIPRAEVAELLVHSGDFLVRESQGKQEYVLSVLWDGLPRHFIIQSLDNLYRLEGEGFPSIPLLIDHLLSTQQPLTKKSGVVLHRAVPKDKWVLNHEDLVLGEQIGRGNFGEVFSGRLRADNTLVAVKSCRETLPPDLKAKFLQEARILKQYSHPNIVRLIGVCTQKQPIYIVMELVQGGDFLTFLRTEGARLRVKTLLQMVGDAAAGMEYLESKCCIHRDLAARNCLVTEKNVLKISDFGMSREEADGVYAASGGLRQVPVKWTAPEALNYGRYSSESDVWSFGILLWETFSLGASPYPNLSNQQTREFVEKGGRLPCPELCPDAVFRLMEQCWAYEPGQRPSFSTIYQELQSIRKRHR

Jak2 = Jak2 (UniProt O60674); assay: as above
Fer (mouse) = assay: as above
c-Src SH2 = assay: SH2 binding enrichment of the phosphorylated peptide, bacterial display (enrichment ratio); higher = better substrate or ligand; peptides without Tyr show the background
Grb2 SH2 = Grb2 SH2 (UniProt P62993); assay: as above
SHP2-C SH2 = assay: as above
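Throughout, for SH2 binding enrichment of the phosphorylated peptide, bacterial display: peptide library displayed on the E. coli surface as eCPX fusions, selected cells deep-sequenced, score is each peptide's frequency after selection divided by its frequency in the input.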
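Throughout, for phosphorylation enrichment, bacterial display: 11-residue human phosphosite peptides and single-mutation variants displayed on the E. coli surface, counted by deep sequencing, each peptide's frequency after selection divided by its frequency in the unselected input library; frequency after pTyr selection over input frequency; kinase dosed for 20-30% of maximal phosphorylation in three min.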

FGFR3, sequence (P22607 whole entry, looked up): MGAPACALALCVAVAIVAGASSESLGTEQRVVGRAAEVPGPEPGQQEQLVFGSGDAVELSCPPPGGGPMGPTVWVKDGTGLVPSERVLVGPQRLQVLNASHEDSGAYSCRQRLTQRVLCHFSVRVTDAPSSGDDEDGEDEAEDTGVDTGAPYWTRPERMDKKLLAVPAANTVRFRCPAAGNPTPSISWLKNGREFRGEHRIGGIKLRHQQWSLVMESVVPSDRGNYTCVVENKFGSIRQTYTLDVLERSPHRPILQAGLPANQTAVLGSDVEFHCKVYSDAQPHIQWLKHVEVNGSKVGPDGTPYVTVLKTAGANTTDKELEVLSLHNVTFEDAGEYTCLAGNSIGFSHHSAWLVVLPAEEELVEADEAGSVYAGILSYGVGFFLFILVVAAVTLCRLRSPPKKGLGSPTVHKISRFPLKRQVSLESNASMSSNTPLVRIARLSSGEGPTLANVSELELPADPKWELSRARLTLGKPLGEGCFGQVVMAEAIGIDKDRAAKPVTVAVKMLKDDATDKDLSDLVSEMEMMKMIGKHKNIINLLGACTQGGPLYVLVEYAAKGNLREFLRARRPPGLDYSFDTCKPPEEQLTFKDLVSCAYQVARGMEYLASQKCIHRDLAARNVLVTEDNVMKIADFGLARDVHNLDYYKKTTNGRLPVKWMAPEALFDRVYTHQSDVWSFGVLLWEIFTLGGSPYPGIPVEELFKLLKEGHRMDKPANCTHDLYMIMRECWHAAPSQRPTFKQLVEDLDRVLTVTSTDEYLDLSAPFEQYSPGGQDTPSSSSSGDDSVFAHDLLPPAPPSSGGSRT
Fyn, sequence (P06241 whole entry, looked up): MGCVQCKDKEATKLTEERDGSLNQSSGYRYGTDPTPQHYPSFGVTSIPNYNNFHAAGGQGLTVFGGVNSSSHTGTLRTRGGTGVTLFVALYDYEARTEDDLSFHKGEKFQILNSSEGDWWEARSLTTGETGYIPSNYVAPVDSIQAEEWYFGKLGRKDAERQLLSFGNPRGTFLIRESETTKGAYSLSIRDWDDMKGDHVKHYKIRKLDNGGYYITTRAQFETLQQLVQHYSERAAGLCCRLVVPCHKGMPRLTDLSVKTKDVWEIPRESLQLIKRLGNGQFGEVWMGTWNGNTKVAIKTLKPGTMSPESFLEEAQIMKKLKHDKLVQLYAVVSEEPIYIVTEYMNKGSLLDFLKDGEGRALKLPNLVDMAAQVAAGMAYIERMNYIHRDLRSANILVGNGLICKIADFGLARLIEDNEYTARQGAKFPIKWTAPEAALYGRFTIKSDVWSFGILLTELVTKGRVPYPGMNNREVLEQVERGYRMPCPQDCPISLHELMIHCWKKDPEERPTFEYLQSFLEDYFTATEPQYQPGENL

Sequence | SH2 binding enrichment (c-Src SH2) | SH2 binding enrichment (Grb2 SH2) | SH2 binding enrichment (SHP2-C SH2) | phosphorylation enrichment (Fyn) | phosphorylation enrichment (FGFR3) | phosphorylation enrichment (EPHB2) | phosphorylation enrichment (AncSZ) | phosphorylation enrichment (c-Abl (mouse)) | phosphorylation enrichment (c-Src) | phosphorylation enrichment (Hck) | phosphorylation enrichment (EPHB1) | phosphorylation enrichment (MERTK) | phosphorylation enrichment (FGFR1) | phosphorylation enrichment (Fes) | phosphorylation enrichment (Jak2) | phosphorylation enrichment (Fer (mouse))
RLNCIYFKDQT [RS1_Y165_W163C_YF] | 0.711 | 1.05 | 0.818 | 0.59 | 0.599 | 0.732 | 1.16 | 1.05 | 1.08 | 0.77 | 0.827 | 0.871 | 0.683 | 1.32 | 1.3 | 0.56
IGRWVYPLTPE [EIF2B5_Y319_R315G] | 0.62 | 0.962 | 0.878 | 0.49 | 0.646 | 0.58 | 1.33 | 0.717 | 0.502 | 0.509 | 0.563 | 0.551 | 0.564 | 1.02 | 0.874 | 0.461
SSEYHCVGGFY [CTSC_Y347_Y347C] | 0.398 | 0.557 | 0.764 | 1.76 | 5.2 | 4.66 | 2.32 | 7.61 | 1.82 | 1.72 | 3.8 | 0.775 | 7.73 | 1.45 | 1.37 | 0.64
EEGNPYFSSAR [MCCC2_Y520_YF] | 0.51 | 0.769 | 0.627 | 0.61 | 0.648 | 0.623 | 1.01 | 0.796 | 1.15 | 0.638 | 0.446 | 0.462 | 0.461 | 0.966 | 0.818 | 0.43
PRARTYCYKQE [KLHDC9_Y175_S171R] | 0.661 | 1.27 | 0.834 | 0.527 | 0.557 | 0.574 | 0.847 | 0.91 | 0.667 | 0.435 | 0.467 | 0.483 | 0.497 | 1.01 | 0.981 | 0.716
WLFFRYLPIGC [ATP2A2_Y836_A838P] | 0.796 | 1.26 | 1.36 | 0.38 | 0.778 | 0.531 | 1.29 | 0.657 | 0.345 | 0.477 | 0.529 | 0.415 | 0.538 | 1.3 | 1.14 | 0.559
EAVLHYKHQNQ [MTOR_Y1804] | 0.677 | 0.904 | 0.549 | 0.428 | 0.453 | 0.403 | 0.632 | 0.589 | 0.364 | 0.37 | 0.405 | 0.363 | 0.338 | 0.799 | 0.641 | 0.492
GGRKGYGGFSR [RECQL5_Y478_D480G] | 0.453 | 0.736 | 0.571 | 0.513 | 0.452 | 0.396 | 0.551 | 0.506 | 0.487 | 0.42 | 0.393 | 0.512 | 0.391 | 0.491 | 0.51 | 0.36
FCRHNYGVVES [HLA-DRB1_Y112_YF] | 1.86 | 1.19 | 1.05 | 0.503 | 0.661 | 2.62 | 0.569 | 0.545 | 0.446 | 0.526 | 1.32 | 0.44 | 0.587 | 0.843 | 0.632 | 0.555
GISDEYHMIRH [GCDH_Y398_V400M] | 0.781 | 0.931 | 0.587 | 0.58 | 4.43 | 0.522 | 1.07 | 0.491 | 0.735 | 0.891 | 0.446 | 0.349 | 7.6 | 0.714 | 0.575 | 0.402
KPGLKYVTYGN [GALNTL5_Y404] | 1.11 | 1.34 | 2.11 | 0.39 | 0.409 | 0.624 | 0.505 | 0.389 | 0.363 | 0.484 | 0.38 | 0.345 | 0.394 | 0.547 | 0.498 | 0.379
NIRKKYYRAIL [CHD7_Y1217_Q1214R] | 0.368 | 0.599 | 0.426 | 0.443 | 0.341 | 0.311 | 0.569 | 0.462 | 0.442 | 0.395 | 0.455 | 0.507 | 0.501 | 0.547 | 0.494 | 0.388
LNEAVYTKMMT [G6PD_Y401_P396L] | 1.61 | 0.659 | 0.414 | 5.35 | 1.29 | 1.8 | 1.9 | 0.881 | 5.76 | 6.11 | 1.76 | 3.19 | 1.38 | 2.05 | 1.15 | 16.1
CEHRGCLYLAI [TEK_Y897_Y897C] | 0.554 | 0.811 | 0.753 | 0.372 | 0.685 | 0.506 | 1.04 | 0.671 | 1.05 | 0.466 | 0.556 | 0.661 | 0.405 | 1.09 | 1.05 | 0.44
YHLLPYTVRAM [PARS2_Y93] | 5.37 | 1.15 | 1.81 | 3.04 | 13.9 | 1.47 | 1.28 | 24.6 | 3.84 | 8.34 | 2.32 | 9.72 | 16.5 | 0.913 | 6.87 | 0.595
ESSKAYERDLS [TTC37_Y1074_A1077D] | 0.471 | 0.681 | 0.715 | 0.419 | 0.524 | 0.488 | 0.735 | 0.533 | 0.402 | 0.456 | 0.394 | 0.432 | 0.384 | 0.771 | 0.499 | 0.519

Now from value to sequence, other results behind:

SH2 binding enrichment (c-Src SH2) | SH2 binding enrichment (Grb2 SH2) | SH2 binding enrichment (SHP2-C SH2) | Sequence | phosphorylation enrichment (Fyn) | phosphorylation enrichment (FGFR3) | phosphorylation enrichment (EPHB2) | phosphorylation enrichment (AncSZ) | phosphorylation enrichment (c-Abl (mouse)) | phosphorylation enrichment (c-Src) | phosphorylation enrichment (Hck) | phosphorylation enrichment (EPHB1) | phosphorylation enrichment (MERTK) | phosphorylation enrichment (FGFR1) | phosphorylation enrichment (Fes) | phosphorylation enrichment (Jak2) | phosphorylation enrichment (Fer (mouse))
0.968 | 0.885 | 0.734 | EWQQIYTYDSG [JUP_Y20_T19I] | 8.85 | 5.58 | 0.971 | 1.6 | 0.75 | 6.89 | 6.09 | 1.69 | 7.85 | 6.84 | 1.18 | 1 | 4.55
0.539 | 1.34 | 1 | LHSEAYLKFNE [PBRM1_Y1610_I1614N_YF] | 1.05 | 0.945 | 0.651 | 1.53 | 0.922 | 0.707 | 0.488 | 0.438 | 0.737 | 0.72 | 1.31 | 1.06 | 0.493
0.39 | 0.735 | 0.76 | EAAFVYVISSA [WNT4_Y113_A114V] | 0.606 | 1.09 | 0.656 | 1.32 | 0.847 | 0.631 | 0.65 | 0.684 | 0.477 | 0.496 | 1.45 | 1.33 | 0.561
1.7 | 0.847 | 1.04 | TQPSPYAVYRF [RPGRIP1_Y823] | 11.5 | 0.795 | 1.84 | 0.912 | 22.2 | 10.1 | 7.95 | 1.22 | 8.69 | 0.794 | 0.834 | 0.898 | 9
0.47 | 0.838 | 0.881 | ELPQTYCVSGP [DYSF_Y1684_G1679E] | 0.469 | 0.594 | 0.532 | 0.791 | 0.633 | 0.641 | 0.435 | 0.533 | 0.447 | 0.417 | 0.816 | 0.826 | 0.515
0.595 | 0.979 | 1.01 | KNKKDYFDMFE [SLC26A3_Y526_YF] | 0.453 | 2.62 | 0.585 | 0.864 | 0.882 | 0.524 | 0.444 | 0.779 | 0.568 | 3.49 | 0.909 | 0.706 | 0.418
0.461 | 0.981 | 0.568 | KEINDYVEKGT [SERPINA1_Y184_Q180E] | 0.514 | 0.632 | 0.56 | 1.21 | 0.621 | 0.517 | 0.515 | 0.513 | 0.439 | 0.558 | 0.954 | 0.75 | 0.492
1.12 | 1.15 | 1.37 | SRIWVYNHFRW [BRCA2_Y2621_YF] | 0.423 | 0.78 | 0.612 | 1.15 | 0.853 | 0.479 | 0.477 | 0.597 | 0.44 | 0.435 | 1.29 | 1.13 | 0.413
0.557 | 0.762 | 0.753 | FKEDPYLVVNP [MCM6_Y810_E806K_YF] | 1.06 | 0.89 | 0.617 | 1.19 | 0.815 | 1.98 | 0.718 | 0.441 | 0.449 | 1.02 | 1.12 | 1.13 | 0.531
0.552 | 0.804 | 0.743 | NGPDVYVLPLT [AATK_Y93] | 2.32 | 0.613 | 0.511 | 1.33 | 0.645 | 1.04 | 0.671 | 0.626 | 1.69 | 0.685 | 0.792 | 0.8 | 0.414
0.465 | 0.793 | 0.642 | GSTLSYGRDGR [MATR3_Y158_P154S] | 0.353 | 0.466 | 0.343 | 0.545 | 0.392 | 0.382 | 0.376 | 0.339 | 0.374 | 0.389 | 0.516 | 0.452 | 0.374
0.909 | 0.761 | 0.975 | SAPPSYEETVA [LITAF_Y23] | 0.645 | 0.672 | 0.636 | 1.1 | 0.727 | 0.398 | 0.569 | 0.6 | 0.414 | 0.65 | 1.09 | 0.828 | 0.531
1.28 | 1.63 | 1.51 | QFFQGYFNNNF [ZNF236_Y644_S643G] | 0.42 | 0.845 | 0.496 | 1.15 | 1.23 | 0.721 | 0.574 | 0.545 | 0.58 | 0.643 | 1.2 | 1.55 | 0.356
0.916 | 0.993 | 1.13 | GHLFAYNWISI [BEST1_Y227_D228N_YF] | 0.488 | 1.21 | 0.469 | 0.962 | 0.58 | 0.392 | 0.444 | 0.51 | 0.548 | 1.34 | 1.06 | 0.978 | 4.77
0.552 | 0.939 | 1.18 | DSILVYQRKEQ [USH2A_Y1909_G1911R] | 0.506 | 0.579 | 0.546 | 0.636 | 0.55 | 0.626 | 0.55 | 0.455 | 0.475 | 0.517 | 0.744 | 0.7 | 0.487
0.349 | 0.615 | 0.498 | PLDGEYVTLQI [TP53_Y327_F328V] | 0.984 | 1.57 | 0.789 | 1.56 | 1.17 | 0.919 | 0.922 | 0.802 | 0.477 | 1.75 | 1.32 | 1.37 | 0.609
0.535 | 0.969 | 0.696 | SVVVPYQPPEV [TP53_Y220_E221Q] | 0.399 | 0.596 | 0.51 | 0.728 | 1.51 | 0.44 | 0.445 | 0.645 | 0.383 | 0.494 | 0.918 | 0.784 | 0.467
